Drawing on PMC2955986 (Journal of thrombosis and haemostasis : JTH, 2010), this text covers Kd for five molecules.

The target of experiment [1] is TFPI (Homo sapiens) (UniProt P10646). The settings on record: cited from earlier work.
The target of experiment [2] is T1, Zn^2+-containing protein S (immunoaffinity-purified) (UniProt P07225 42-676).
T1 sequence (looked up): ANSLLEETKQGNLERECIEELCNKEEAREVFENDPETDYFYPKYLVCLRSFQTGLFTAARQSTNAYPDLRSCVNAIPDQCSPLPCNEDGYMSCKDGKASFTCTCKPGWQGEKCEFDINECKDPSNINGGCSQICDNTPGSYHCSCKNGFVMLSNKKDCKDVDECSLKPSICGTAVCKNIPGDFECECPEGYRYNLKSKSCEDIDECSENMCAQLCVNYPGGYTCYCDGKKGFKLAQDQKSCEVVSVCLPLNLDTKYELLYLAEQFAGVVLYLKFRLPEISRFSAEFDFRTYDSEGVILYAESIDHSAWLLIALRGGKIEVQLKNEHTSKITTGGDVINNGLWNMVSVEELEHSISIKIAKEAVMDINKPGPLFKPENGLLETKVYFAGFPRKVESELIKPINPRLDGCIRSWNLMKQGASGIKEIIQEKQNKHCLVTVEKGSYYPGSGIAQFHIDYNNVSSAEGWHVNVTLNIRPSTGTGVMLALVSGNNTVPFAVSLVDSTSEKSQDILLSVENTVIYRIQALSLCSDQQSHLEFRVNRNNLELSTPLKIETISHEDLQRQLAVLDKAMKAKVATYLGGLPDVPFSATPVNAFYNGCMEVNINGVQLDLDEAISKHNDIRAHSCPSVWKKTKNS
The experiment is described as follows: fluid phase binding assay.

The target of experiment [3] is Soluble tissue factor (residues 1-218). Kind of experiment: fluid phase binding assay.
For experiment [4] the target is unchanged. Kind of experiment: fluid phase binding assay. This is another data set of the same source.
Experiment [5] deals with Factor X. The experiment is described as follows: fluid phase binding assay.
Experiment [6] deals with T2, factor X (Homo sapiens, UniProt P00742).
T2 chain: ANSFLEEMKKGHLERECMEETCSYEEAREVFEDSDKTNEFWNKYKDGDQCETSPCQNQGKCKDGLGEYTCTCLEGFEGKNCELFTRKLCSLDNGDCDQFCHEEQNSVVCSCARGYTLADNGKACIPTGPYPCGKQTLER

Experiment [7] concerns the target Soluble tissue factor (residues 1-218). Kind of experiment: ELISA.

TFPI (Homo sapiens), sequence (P10646 29-304): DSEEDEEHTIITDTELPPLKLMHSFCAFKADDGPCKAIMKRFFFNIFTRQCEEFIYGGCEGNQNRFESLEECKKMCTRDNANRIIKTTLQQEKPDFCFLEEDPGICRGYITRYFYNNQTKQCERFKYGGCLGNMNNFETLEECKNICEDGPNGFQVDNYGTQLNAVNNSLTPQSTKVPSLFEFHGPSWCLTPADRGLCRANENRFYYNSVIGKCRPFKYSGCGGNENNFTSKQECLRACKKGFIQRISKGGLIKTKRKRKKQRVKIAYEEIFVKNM

As to protein S (from UniProt P07225), the dissociation constant (Kd) in experiment [1] is 21 nM.

B1: Full length nonlipidated tissue factor (natural protein, UniProt P13726 33-295, looked up)
chain: SGTTNTVAAYNLTWKSTNFKTILEWEPKPVNQVYTVQISTKSGDWKSKCFYTTDTECDLTDEIVKDVKQTYLARVFSYPAGNVESTGSAGEPLYENSPEFTPYLETNLGQPTIQSFEQVGTKVNVTVEDERTLVRRNNTFLSLRDVFGKDLIYTLYYWKSSSSGKKTAKTNTNEFLIDVDKGENYCFSVQAVIPSRTVNRKSTDSPVECMGQEKGEFREIFYIIGAVVFVVIILVIILAISLHKCRKAGVGQSWKENSPLNVS
B1: the Kd in experiment [2] came out at 41 nM.

B2: Zn^2+-containing protein S (immunoaffinity-purified) (natural protein)
chain: T1 sequence (looked up)
Turning to B2, the values for the Kd in experiment [3], in experiment [4] and in experiment [5] were 41 nM, 41 nM and 127 nM, respectively.

B3: protein S (protein)
chain: T1 sequence (looked up)
modifications: Zn2+-containing
In the case of B3, the Kd in experiment [6] was roughly 130 nM.

B4: Zn^2+-reconstituted commercial protein S (natural protein)
chain: T1 sequence (looked up)
As for B4, the Kd in experiment [7] came to 39 nM.
